T1: OsSMF1 (RISBZ1, OsbZIP58)-DsRed fusion (Oryza sativa cv. Ilmi, UniProt Q6ZLB0 1-436)
T1 sequence: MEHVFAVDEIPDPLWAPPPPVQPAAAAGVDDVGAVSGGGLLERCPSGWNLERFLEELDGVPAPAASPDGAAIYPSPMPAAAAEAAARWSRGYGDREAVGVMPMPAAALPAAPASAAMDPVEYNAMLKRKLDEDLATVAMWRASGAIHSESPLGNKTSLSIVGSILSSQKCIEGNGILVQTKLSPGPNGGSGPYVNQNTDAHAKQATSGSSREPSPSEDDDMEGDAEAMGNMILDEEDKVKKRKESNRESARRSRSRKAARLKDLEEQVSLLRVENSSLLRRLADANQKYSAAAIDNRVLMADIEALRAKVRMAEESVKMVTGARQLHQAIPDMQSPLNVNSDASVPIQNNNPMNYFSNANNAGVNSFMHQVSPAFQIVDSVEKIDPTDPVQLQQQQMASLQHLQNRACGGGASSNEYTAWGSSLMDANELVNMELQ

B1: ATGA 21-bp wild type (dsDNA)
DNA 1: CTGATTCGGATGACGGACGAA
DNA 2: TTCGTCCGTCATCCGAATCAG
B2: ACGT 21-bp wild type (dsDNA)
DNA 1: AAGCGCCACGTCAGCCAAAAC
DNA 2: GTTTTGGCTGACGTGGCGCTT
B3: GCN4 21-bp wild type (dsDNA)
DNA 1: GTTTGTCATGGCTGAGTCATG
DNA 2: CATGACTCAGCCATGACAAAC

Target: T1, OsSMF1 (RISBZ1, OsbZIP58)-DsRed fusion
Experiment: EMSA (SYBR Gold); 5 mM MgCl2; Kd EMSA: 10 mM Tris, 50 mM KCl, 1 mM DTT pH 7.5, 50 ng/ul poly(dI-dC), 2.5% glycerol, 0.05% NP-40, 5 mM MgCl2, 0.2 ug/ul OsSMF1, DNA 0-6 uM, 1 h room temperatur
Settings: protein: recombinant; tags: DsRed fusion; Ni-NTA purified; chain copies: 2; SYBR Gold stain (Kd); 21 bp

| Binder | Kd |
| --- | --- |
| B1 | 1120 nM |
| B2 | 335 nM |
| B3 | 646 nM |

Reference: paper PMC5405039, “Genome-wide identification of grain filling genes regulated by the OsSMF1 transcription factor in rice”
